# Assay results reported in patent US20200147177A1, “INTERLEUKIN 12 (IL12) OR DERIVATIVE THEREOF FOR USE IN THE TREATMENT OF SECONDARY DISEASE” (priority 2017, published 2020).
# B1: IL-12: heterodimeric cytokine encoded by IL-12A (p35) and IL-12B (p40); Abcam, 100 ng i.p. (protein, UniProt P43431 23-215; P43432 23-335, looked up)
# Interleukin-12 subunit alpha: RVIPVSGPARCLSQSRNLLKTTDDMVKTAREKLKHYSCTAEDIDHEDITRDQTSTLKTCLPLELHKNESCLATRETSSTTRGSCLPPQKTSLMMTLCLGSIYEDLKMYQTEFQAINAALQNHNHQQIILDKGMLVAIDELMQSLNHNGETLRQKPPVGEADPYRVKMKLCILLHAFSTRVVTINRVMGYLSSA
# Interleukin-12 subunit beta: MWELEKDVYVVEVDWTPDAPGETVNLTCDTPEEDDITWTSDQRHGVIGSGKTLTITVKEFLDAGQYTCHKGGETLSHSHLLLHKKENGIWSTEILKNFKNKTFLKCEAPNYSGRFTCSWLVQRNMDLKFNIKSSSSSPDSRAVTCGMASLSAEKVTLDQRDYEKYSVSCQEDVTCPTAEETLPIELALEARQQNKYENYSTSFFIRDIIKPDPPKNLQMKPLKNSQVEVSWEYPDSWSTPHSYFSLKFFVRIQRKKEKMKETEEGCNQKGAFLVEKTSTEVQCKGGNVCVQAQDRYYNSSCSKWACVPCRVRS
# Tests used:
# Escherichia coli = test: Secondary E. coli pneumonia in infection-cured mice, c.f.u. in bronchoalveolar lavage; assay type: in vivo; conditions: IL-12 100 ng i.p. concurrent with induction of secondary pneumonia; c.f.u. from BAL 16 hours after E. coli; FIG. 4g
# [1] = test system: lung DC, macrophages and NK cells; test: Intracellular staining of DC, macrophages and lymphocytes for cytokines during secondary pneumonia; assay type: in vivo, mice; conditions: IL-12 100 ng i.p.; secondary pneumonia 7 days after primary E. coli pneumonia; FIG. 11e
# Method: For intracellular staining of cytokines in DC or lymphocytes, cell suspensions were obtained by mechanical and collagenase digestion of lungs collected 16 hours after injection of E. coli. Cells were cultured 4 hours in complete media with Golgi Plug, washed twice and then stained for surface markers. Fixation and permeabilization was performed following manufacturer instructions (BD Cytofix/Cytoperm kit, BD Bioscience). Anti-cytokine antibody was incubated overnight at 4° C. Cells were washed twice before FACS analysis.
# Mice were treated with IL-12 (100 ng i.p., Abcam) concomitantly to the induction of the secondary pneumonia. Anti-TGFβ monoclonal antibody (1B11, 44 μg i.p. every 3 days) or isotype control IgG1 monoclonal antibody (MG1-45, Biolegend) injections were performed 3 and 6 days after primary pneumonia. TGF-β (1 μg i.p., Thermofisher) was injected once 6 days after primary pneumonia in DT-treated CD11c-DTR chimeric mice
# NK cells = test: Functional assay of NK cells in PBMC treated or not overnight with IL12; assay type: cell-based, human; conditions: PBMC of traumatic-brain injured patients day 1 and day 7 and healthy controls; overnight IL-12; 5-hours functional assay; FIG. 18
# Description: (i) spontaneous lysis with and without O/N treatment with IL-12 of PBMC of traumatic-brain injured patients on days 1 (d1) (n=5) and day 7(d7) (n=5) and healthy controls (HC) (n=5) and (ii) reverse ADCC with and without O/N treatment with IL-12 of PBMC of TBI on days 1 (n=6) and 7 (n=6) and HC (n=4)
# EDTA-anticoagulated blood samples were withdrawn seven days after primary infection in septic patients (IBIS sepsis), or at day 1 and day 7 ICU admission in trauma patients. Peripheral blood mononuclear cells (PBMCs) were isolated by centrifugation, frozen in liquid nitrogen in a 10% DMSO solution and stored until analysis.
# E. coli, S. aureus = test: Bacterial pneumonia in mice cured from infection or from trauma-hemorrhage (FIG. 17); assay type: in vivo
molecule,measurement,setting,value
B1,bacterial clearance during secondary pneumonia,Escherichia coli,enhanced bacterial clearance
same,IFN-γ production by NK cells during secondary pneumonia,[1],restored
same,responsiveness of NK cells to IL-12 (IFNγ+ CD107a+ NK cells),NK cells,remain responsive
same,clinical recovery during bacterial pneumonia,"E. coli, S. aureus",enhances clinical recovery
same,innate immune response during bacterial pneumonia,"E. coli, S. aureus",restores innate immune response
